Residue numbers refer to the chain shown, from its start.
B1: unnamed (protein)
chain 1: EVQLLESGGGLVQPGGSLRLSCAASGFTFSQYGMDWVRQAPGKGLEWVSGIGPSGGSTVYADSVKGRFTISRDNSKNTLYLQMNSLRAEDTAVYYCTRGGPWYYYAFDVWGQGTTVTVSS
chain 2: DIQMTQSPSSLSASVGDRVTITCQASQDISNYLNWYQQKPGKAPKLLIYDASNLETGVPSRFSGSGSGTDFTFTISSLQPEDIATYYCQQADSFPVTFGGGTKVEIK
B2: unnamed (protein)
chain 1: B1 chain 1 with G99D, P101D, W102A
chain 2: B1 chain 2
B3: unnamed (protein)
chain 1: B1 chain 1 with G99D, W102D, V109Y
chain 2: B1 chain 2
B4: unnamed (protein)
chain 1: B1 chain 1 with T97A, W102A, Y103W
chain 2: B1 chain 2
B5: unnamed (protein)
chain 1: B1 chain 1 with T97A, P101S, W102A
chain 2: B1 chain 2
B6: unnamed (protein)
chain 1: B1 chain 1 with W102A, Y103W
chain 2: B1 chain 2
B7: unnamed (protein)
chain 1: B1 chain 1 with P101T, W102A
chain 2: B1 chain 2
B8: unnamed (protein)
chain 1: QVQLVQSGAEVKKPGASVKVSCKASGYSFTSSWIHWVKQAPGQGLEWMGEINPGNVRTNYNENFRNKVTMTVDTSISTAYMELSRLRSDDTAVYYCTVVFYGEPYFPYWGQGTLVTVSS
chain 2: QIVLTQSPGTLSLSPGERATMTCTASSSVSSSYFHWYQQKPGQAPRLWIYRTSRLASGVPDRFSGSGSGTDFTLTISRLEPEDAATYYCHQFHRSPLTFGAGTKLEIK
B9: unnamed (protein)
chain 1: B8 chain 1 with V98R, F100Q, P107D
chain 2: B8 chain 2
B10: unnamed (protein)
chain 1: B8 chain 1 with V98R, V99S, F100R, Y105W, P107D
chain 2: B8 chain 2

Columns and labels:
FXI = assay: Kd (SPR)
IL36R = assay: Kd (SPR)

Kd (FXI) | Kd (IL36R) | Binder
284 nM |  | B1
625 nM |  | B2
573 nM |  | B3
204 nM |  | B4
822 nM |  | B5
241 nM |  | B6
1410 nM |  | B7
 | 0.964 nM | B8
 | 0.617 nM | B9
 | 24.5 nM | B10

Reference: the FLAb antibody collection (doi:10.1101/2023.12.08.570889)
